From patent publication US20030232760A1, “Conjugates useful in the treatment of prostate cancer” (priority 2001, published 2003)
Where a SMILES comes first, the peptide text is derived from it. Primed or numbered codes have the meaning given here. [ ]: non-standard residue; d: D form. The star is where a group is joined. ξ: configuration not given here. Doxorubicin(3'-N) = COc1cccc2c1C(=O)c1c(O)c3c(c(O)c1C2=O)C[C@@](O)(C(=O)CO)C[C@@H]3O[C@H]1C[C@H](N*)[C@H](O)[C@H](C)O1; PEG(2) = polyethylene glycol-containing substituent with two ethyleneoxy subunits; Hyp = O=C(O)[C@@H]1C[C@@H](O)CN1; ξtBuAla = CC(C)(C)CC(N)C(=O)O; Chg = N[C@H](C(=O)O)C1CCCCC1; ξHyp = O=C(O)C1CC(O)CN1

What was measured:
[1] = target: T1, enzymatically active free PSA (Homo sapiens, UniProt P07288); assay: Recognition of oligopeptide-doxorubicin conjugates by free PSA (HPLC cleavage assay); format: biochemical; details: for Time to 50% Substrate Cleavage by PSA: conjugate added to PSA at molar ratio 100 to 1, PSA digestion buffer
T1 construct: required for 50% cleavage of the noted oligopeptides with enzymatically active free PSA
T1 sequence (P07288 25-261): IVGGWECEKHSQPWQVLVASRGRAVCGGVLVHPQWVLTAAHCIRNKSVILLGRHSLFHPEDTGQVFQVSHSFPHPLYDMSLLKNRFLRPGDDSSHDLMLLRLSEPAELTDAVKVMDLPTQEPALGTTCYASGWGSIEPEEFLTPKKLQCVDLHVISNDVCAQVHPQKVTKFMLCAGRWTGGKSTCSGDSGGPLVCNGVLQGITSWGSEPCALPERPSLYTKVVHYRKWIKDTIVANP
Protocol: The conjugates prepared as described in Examples 3-5 were individually dissolved in PSA digestion buffer (12 mM tris(hydroxymethyl)-aminomethane pH8.0, 25 mM NaCl, 0.5 mm CaCl2) and the solution added to PSA at a molar ration of 100 to 1. Alternatively, the PSA digestion buffer utilized is 50 mM tris(hydroxymethyl)-aminomethane pH7.4, 140 mM NaCl. The reaction is quenched after various reaction times by the addition of trifluoroacetic acid (TFA) to a final 1% (volume/volume). Alternatively the reaction is quenched with 10 mm ZnCl2. The quenched reaction was analyzed by HPLC on a reversed-phase C18 column using an aqueous 0.1% TFA/acetonitrile gradient. […] If no salt is indicated for the conjugate, the free conjugate was tested. The oligopeptide-cytotoxic agent conjugates described in Examples 4 and 5 were assessed for the amount of time (in minutes) required for 50% cleavage of the oligopeptide with enzymatically active free PSA and 50% cleavage occurred in less than 2 hours for those conjugates.

[2] = target: T1, enzymatically active free PSA; assay: Recognition of oligopeptides by free PSA (HPLC cleavage assay); format: biochemical; details: for Substrate cleavage by PSA at 3 HOURS: oligopeptide added to PSA at molar ratio 100 to 1; for Time to 50% Substrate Cleavage by PSA: oligopeptide added to PSA at molar ratio 100 to 1, PSA digestion buffer
Protocol: The oligopeptides prepared as described in Example 1 were individually dissolved in PSA digestion buffer (12 mM tris(hydroxymethyl)-aminomethane pH8.0, 25 mM NaCl, 0.5 mM CaCl2) and the solution added to PSA at a molar ration of 100 to 1. Alternatively, the PSA digestion buffer utilized is 50 mM tris(hydroxymethyl)-aminomethane pH7.4, 140 mM NaCl. The reaction is quenched after various reaction times by the addition of trifluoroacetic acid (TFA) to a final 1% (volume/volume). Alternatively the reaction is quenched with 10 mM ZnCl2. The quenched reaction was analyzed by HPLC on a reversed-phased C18 column using an aqueous 0.1% TFA/acetonitrile gradient. […] Oligopeptides containing free amine moieties (ie. comprising hArg, Orn, Lys and or 3PAL) were tested as TFA salts. All other oligopeptides were tested as neutral compounds.

[3] = test system: LNCap prostate tumor cells (which express enzymatically active PSA); assay: In vitro cytotoxicity of peptidyl derivatives of doxorubicin, Alamar Blue assay, LNCaP; format: cell-based; details: 72 HRS, read-out: LNCaP Cell Kill in 72 HRS EC 50
Protocol: (§1) The cytotoxicities of the cleaveable oligopeptide-doxorubicin conjugates, prepared as described in Examples 3 and 4, against a line of cells which is known to be killed by unmodified doxorubicin were assessed with an Alamar Blue assay. Specifically, cell cultures of LNCap prostate tumor cells (which express enzymatically active PSA) or DuPRO cells in 96 well plates was diluted with medium (Dulbeco's Minimum Essential Medium-α [MEM-α]) containing various concentrations of a given conjugate (final plate well volume of 200 μl). The cells were incubated for 3 days at 37° C., 20 μl of Alamar Blue is added to the assay well. The cells were further incubated and the assay plates were read on a EL-310 ELISA reader at the dual wavelengths of 570 and 600 nm at 4 and 7 hours after addition of Alamar Blue. Relative percentage viability at the various concentration of conjugate tested was then calculated versus control (no conjugate) cultures. If no salt is indicated, the free conjugate was tested.

DuPRO cells = assay: In vitro cytotoxicity of peptidyl derivatives of doxorubicin, Alamar Blue assay, DuPRO; format: cell-based; details: 72 HRS, read-out: DuPRO Cell Kill in 72 HRS EC 50
Protocol: as §1

With Ac-(4-trans-L-Hyp)ASChgQ-SThi-DOX (3′) the “Solubility noted in the column Time to 50% Substrate Cleavage by PSA” value [1] was “INSOLUBLE”.

With “PEG(2)-(4-trans-L-Hyp)ASChgQ-SL-acid ({PEG(2)}-[Hyp]AS[Chg]QSL-OH)” the “Substrate cleavage by PSA at 3 HOURS” value [2] was 3 HOURS = 44%.

In the case of `COc1cccc2c1C(=O)c1c(O)c3c(c(O)c1C2=O)C[C@@](O)(C(=O)CO)C[C@@H]3O[C@H]1C[C@H](NC(=O)C(CC(C)(C)C)NC(=O)[C@H](CO)NC(=O)[C@H](CCC(N)=O)NC(=O)[C@@H](NC(=O)[C@H](CO)NC(=O)[C@H](C)NC(=O)C2CC(O)CN2C(C)=O)C2CCCCC2)[C@H](O)[C@H](C)O1` (stereo partly shown) (Ac-[ξHyp]AS[Chg]QS[ξtBuAla]-{Doxorubicin(3'-N)}), the “Time to 50% Substrate Cleavage by PSA” value [1] is reported as 25 min, the EC50 [3] is reported as 100 µM and the EC50 (DuPRO cells) is reported as over 100 µM.

In the case of Ac-(Dehydro-Pro)-ASChgQ-SL-acid, the “Substrate cleavage by PSA at 3 HOURS” value [2] is reported as 3 HOURS = 28%.

With `COc1cccc2c1C(=O)c1c(O)c3c(c(O)c1C2=O)C[C@@](O)(C(=O)CO)C[C@@H]3O[C@H]1C[C@H](NC(=O)[C@H](CC(C)C)NC(=O)[C@H](CO)NC(=O)[C@H](CCC(N)=O)NC(=O)[C@@H](NC(=O)[C@H](CO)NC(=O)[C@H](C)NC(=O)[C@@H]2C[C@@H](O)CN2C(C)=O)C2CCCCC2)[C@H](O)[C@H](C)O1` [Ac-(4-trans-L-Hyp)ASChgQ-SL-DOX (3′), [N-Ac-(4-trans-L-Hyp)]-Ala-Ser-Chg-Gln-Ser-Leu-Dox] (Ac-[Hyp]AS[Chg]QSL-{Doxorubicin(3'-N)}) the “Time to 50% Substrate Cleavage by PSA” value [1] was 20 min, the EC50 [3] was 4.5 µM and the EC50 (DuPRO cells) was 90 µM.

For Ac-PASChgQ-SL-acid (Ac-PAS[Chg]QSL-OH), the “Time to 50% Substrate Cleavage by PSA” value [2] was 150 min.

In the case of Ac-PSSChgQ-SV-acid, the “Time to 50% Substrate Cleavage by PSA” value [2] is reported as 120 min.

For Ac-(4-trans-L-Hyp)ChgQ-SSSL-acid, the “Substrate cleavage by PSA at 3 HOURS” value [2] was 3 HOURS = 0% n = 2.

“[N-Ac-(4-trans-L-Hyp)]-Ala-Ser-Chg-Gln-Ser-Leu-OH (Ac-[Hyp]AS[Chg]QSL-OH) [Ac-(4-trans-L-Hyp)ASChgQ-SL-acid]” was tested, and the “Time to 50% Substrate Cleavage by PSA” value [2] was 75 min.
